IntAct's records for PubMed 25910212

B1: Corrinoid adenosyltransferase MMAB (Homo sapiens), Q96EY8 (parent)
chain: MAVCGLGSRLGLGSRLGLRGCFGAARLLYPRFQSRGPQGVEDGDRPQPSSKTPRIPKIYTKTGDKGFSSTFTGERRPKDDQVFEAVGTTDELSSAIGFALELVTEKGHTFAEELQKIQCTLQDVGSALATPCSSAREAHLKYTTFKAGPILELEQWIDKYTSQLPPLTAFILPSGGKISSALHFCRAVCRRAERRVVPLVQMGETDANVAKFLNRLSDYLFTLARYAAMKEGNQEKIYMKNDPSAESEGL
partner: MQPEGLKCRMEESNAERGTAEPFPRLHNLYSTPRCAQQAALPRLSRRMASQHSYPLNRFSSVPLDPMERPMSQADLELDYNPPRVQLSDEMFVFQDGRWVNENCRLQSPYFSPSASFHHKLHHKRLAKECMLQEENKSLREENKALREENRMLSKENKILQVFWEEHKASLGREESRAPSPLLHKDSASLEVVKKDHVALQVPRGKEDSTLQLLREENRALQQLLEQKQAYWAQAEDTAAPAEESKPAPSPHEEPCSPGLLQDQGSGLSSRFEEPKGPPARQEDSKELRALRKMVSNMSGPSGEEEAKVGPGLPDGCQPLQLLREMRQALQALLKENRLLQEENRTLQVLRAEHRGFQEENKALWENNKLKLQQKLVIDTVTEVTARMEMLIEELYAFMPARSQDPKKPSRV
B2: Basal cell adhesion molecule (Homo sapiens), P50895 (parent)
chain: MEPPDAPAQARGAPRLLLLAVLLAAHPDAQAEVRLSVPPLVEVMRGKSVILDCTPTGTHDHYMLEWFLTDRSGARPRLASAEMQGSELQVTMHDTRGRSPPYQLDSQGRLVLAEAQVGDERDYVCVVRAGAAGTAEATARLNVFAKPEATEVSPNKGTLSVMEDSAQEIATCNSRNGNPAPKITWYRNGQRLEVPVEMNPEGYMTSRTVREASGLLSLTSTLYLRLRKDDRDASFHCAAHYSLPEGRHGRLDSPTFHLTLHYPTEHVQFWVGSPSTPAGWVREGDTVQLLCRGDGSPSPEYTLFRLQDEQEEVLNVNLEGNLTLEGVTRGQSGTYGCRVEDYDAADDVQLSKTLELRVAYLDPLELSEGKVLSLPLNSSAVVNCSVHGLPTPALRWTKDSTPLGDGPMLSLSSITFDSNGTYVCEASLPTVPVLSRTQNFTLLVQGSPELKTAEIEPKADGSWREGDEVTLICSARGHPDPKLSWSQLGGSPAEPIPGRQGWVSSSLTLKVTSALSRDGISCEASNPHGNKRHVFHFGTVSPQTSQAGVAVMAVAVSVGLLLLVVAVFYCVRRKGGPCCRQRREKGAPPPGEPGLSHSGSEQPEQTGLLMGGASGGARGGSGGFGDEC
partner: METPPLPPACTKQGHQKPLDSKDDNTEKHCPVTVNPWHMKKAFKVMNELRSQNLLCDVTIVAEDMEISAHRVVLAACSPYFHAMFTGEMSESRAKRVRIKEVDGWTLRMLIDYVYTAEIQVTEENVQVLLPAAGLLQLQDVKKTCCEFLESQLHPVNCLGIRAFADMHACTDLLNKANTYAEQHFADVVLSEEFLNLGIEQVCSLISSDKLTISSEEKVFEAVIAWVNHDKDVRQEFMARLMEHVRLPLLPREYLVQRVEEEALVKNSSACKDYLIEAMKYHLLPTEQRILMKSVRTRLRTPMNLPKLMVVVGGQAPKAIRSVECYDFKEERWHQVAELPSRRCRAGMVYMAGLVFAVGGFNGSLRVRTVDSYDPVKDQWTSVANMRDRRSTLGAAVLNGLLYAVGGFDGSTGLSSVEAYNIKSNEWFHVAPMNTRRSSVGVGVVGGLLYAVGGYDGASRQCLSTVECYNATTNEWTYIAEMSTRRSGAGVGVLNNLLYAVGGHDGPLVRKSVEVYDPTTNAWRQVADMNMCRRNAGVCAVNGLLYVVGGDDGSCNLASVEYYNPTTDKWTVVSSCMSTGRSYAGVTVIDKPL
B3: Plakophilin-2 (Homo sapiens), Q99959-2 (parent)
chain: MAAPGAPAEYGYIRTVLGQQILGQLDSSSLALPSEAKLKLAGSSGRGGQTVKSLRIQEQVQQTLARKGRSSVGNGNLHRTSSVPEYVYNLHLVENDFVGGRSPVPKTYDMLKAGTTATYEGRWGRGTAQYSSQKSVEERSLRHPLRRLEISPDSSPERAHYTHSDYQYSQRSQAGHTLHHQESRRAALLVPPRYARSEIVGVSRAGTTSRQRHFDTYHRQYQHGSVSDTVFDSIPANPALLTYPRPGTSRSMGNLLEKENYLTAGLTVGQVRPLVPLQPVTQNRASRSSWHQSSFHSTRTLREAGPSVAVDSSGRRAHLTVGQAAAGGSGNLLTERSTFTDSQLGNADMEMTLERAVSMLEADHMLPSRISAAATFIQHECFQKSEARKRVNQLRGILKLLQLLKVQNEDVQRAVCGALRNLVFEDNDNKLEVAELNGVPRLLQVLKQTRDLETKKQITGLLWNLSSNDKLKNLMITEALLTLTENIIIPFSGWPEGDYPKANGLLDFDIFYNVTGCLRNMSSAGADGRKAMRRCDGLIDSLVHYVRGTIADYQPDDKATENCVCILHNLSYQLEAELPEKYSQNIYIQNRNIQTDNNKSIGCFGSRSRKVKEQYQDVPMPEEKSNPKGVEWLWHSIVIRMYLSLIAKSVRNYTQEASLGALQNLTAGSGPMPTSVAQTVVQKESGLQHTRKMLHVGDPSVKKTAISLLRNLSRNLSLQNEIAKETLPDLVSIIPDTVPSTDLLIETTASACYTLNNIIQNSYQNARDLLNTGGIQKIMAISAGDAYASNKASKAASVLLYSLWAHTELHHAYKKAQFKKTDFVNSRTAKAYHSLKD
partner: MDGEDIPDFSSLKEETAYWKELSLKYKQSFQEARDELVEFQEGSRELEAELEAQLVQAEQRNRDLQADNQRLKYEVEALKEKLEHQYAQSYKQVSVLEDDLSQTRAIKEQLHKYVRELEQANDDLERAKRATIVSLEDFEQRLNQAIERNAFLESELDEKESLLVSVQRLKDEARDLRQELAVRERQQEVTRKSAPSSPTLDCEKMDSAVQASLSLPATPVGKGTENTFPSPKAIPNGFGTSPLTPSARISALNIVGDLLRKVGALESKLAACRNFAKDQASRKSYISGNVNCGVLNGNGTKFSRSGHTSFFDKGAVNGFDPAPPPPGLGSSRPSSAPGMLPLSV
B4: Emerin (Homo sapiens), P50402 (parent)
chain: MDNYADLSDTELTTLLRRYNIPHGPVVGSTRRLYEKKIFEYETQRRRLSPPSSSAASSYSFSDLNSTRGDADMYDLPKKEDALLYQSKGYNDDYYEESYFTTRTYGEPESAGPSRAVRQSVTSFPDADAFHHQVHDDDLLSSSEEECKDRERPMYGRDSAYQSITHYRPVSASRSSLDLSYYPTSSSTSFMSSSSSSSSWLTRRAIRPENRAPGAGLGQDRQVPLWGQLLLFLVFVIVLFFIYHFMQAEEGNPF
partner: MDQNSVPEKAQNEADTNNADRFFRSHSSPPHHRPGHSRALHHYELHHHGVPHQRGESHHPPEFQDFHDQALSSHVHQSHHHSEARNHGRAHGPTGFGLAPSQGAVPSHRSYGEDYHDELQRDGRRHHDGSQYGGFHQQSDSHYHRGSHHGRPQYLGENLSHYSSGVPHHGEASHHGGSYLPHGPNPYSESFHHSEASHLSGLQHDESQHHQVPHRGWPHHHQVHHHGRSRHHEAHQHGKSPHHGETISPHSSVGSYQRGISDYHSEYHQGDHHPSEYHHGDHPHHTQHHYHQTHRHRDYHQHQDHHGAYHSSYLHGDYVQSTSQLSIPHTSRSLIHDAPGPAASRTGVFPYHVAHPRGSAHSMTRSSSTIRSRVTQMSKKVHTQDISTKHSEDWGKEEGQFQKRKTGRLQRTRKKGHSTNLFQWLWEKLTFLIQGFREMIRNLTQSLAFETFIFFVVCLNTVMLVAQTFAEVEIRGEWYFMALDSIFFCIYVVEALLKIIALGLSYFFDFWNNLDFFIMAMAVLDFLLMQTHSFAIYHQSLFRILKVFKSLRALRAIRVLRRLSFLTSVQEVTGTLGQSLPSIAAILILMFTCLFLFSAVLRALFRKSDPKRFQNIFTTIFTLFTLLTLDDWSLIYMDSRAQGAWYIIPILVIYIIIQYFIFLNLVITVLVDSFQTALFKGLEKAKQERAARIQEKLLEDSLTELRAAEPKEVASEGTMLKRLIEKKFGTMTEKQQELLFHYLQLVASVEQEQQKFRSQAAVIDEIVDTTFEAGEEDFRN
B5: Beta-crystallin A4 (Homo sapiens), P53673 (parent)
chain: MTLQCTKSAGPWKMVVWDEDGFQGRRHEFTAECPSVLELGFETVRSLKVLSGAWVGFEHAGFQGQQYILERGEYPSWDAWGGNTAYPAERLTSFRPAACANHRDSRLTIFEQENFLGKKGELSDDYPSLQAMGWEGNEVGSFHVHSGAWVCSQFPGYRGFQYVLECDHHSGDYKHFREWGSHAPTFQVQSIRRIQQ
partner: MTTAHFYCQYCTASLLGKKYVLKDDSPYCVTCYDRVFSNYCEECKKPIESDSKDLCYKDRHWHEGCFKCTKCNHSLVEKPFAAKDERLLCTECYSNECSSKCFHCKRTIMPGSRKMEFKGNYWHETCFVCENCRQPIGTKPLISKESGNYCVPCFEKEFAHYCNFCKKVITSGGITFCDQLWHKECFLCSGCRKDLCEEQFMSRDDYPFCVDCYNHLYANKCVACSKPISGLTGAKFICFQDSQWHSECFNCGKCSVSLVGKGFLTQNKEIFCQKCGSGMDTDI
B6: Mitochondrial import inner membrane translocase subunit Tim8 A (Homo sapiens), O60220 (parent)
chain: MDSSSSSSAAGLGAVDPQLQHFIEVETQKQRFQQLVHQMTELCWEKCMDKPGPKLDSRAEACFVNCVERFIDTSQFILNRLEQTQKSKPVFSESLSD
B7: Emerin (Homo sapiens), P50402 (parent)
chain: B4 chain
partner: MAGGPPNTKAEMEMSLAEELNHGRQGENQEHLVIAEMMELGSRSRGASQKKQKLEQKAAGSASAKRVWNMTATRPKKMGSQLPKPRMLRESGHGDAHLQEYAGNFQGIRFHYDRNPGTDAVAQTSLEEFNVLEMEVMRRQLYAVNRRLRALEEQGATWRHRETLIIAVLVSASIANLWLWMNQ

Variants of: B1
Details: with CBY2, Q8NA61-2

Row | Variant | effect of a mutation on the interaction
1 | A135T | with no effect
2 | I96T | with no effect
3 | R190C | with no effect

Variants of: B2
Details: with klhl2_human KLHL2, O95198

Row | Variant | effect of a mutation on the interaction
4 | R77H | with no effect
5 | R175Q | with no effect
6 | S447L | with no effect
7 | T539A | with no effect

Variants of: B3
Details: with ndel1_human NDEL1, Q9GZM8

Row | Variant | effect of a mutation on the interaction
8 | S140F | disrupting interaction strength
9 | A264V | with no effect
10 | S644P | disrupting interaction strength

Variants of: B4
Details: with ctsr1_human CATSPER1, Q8NEC5

Row | Variant | effect of a mutation on the interaction
11 | P183T | with no effect
12 | D72V | with no effect
13 | S54F | with no effect
14 | P183H | with no effect

Variants of: B5
Details: with fhl5_human FHL5, Q5TD97

Row | Variant | effect of a mutation on the interaction
15 | V36M | disrupting interaction strength
16 | L69P | disrupting interaction strength
17 | F94S | disrupting interaction strength

Variants of: B6
Details: with stam2_human STAM2, O75886

Row | Variant | effect of a mutation on the interaction
18 | C66W | disrupting interaction strength

Variants of: B7
Details: with fate1_human FATE1, Q969F0

Row | Variant | effect of a mutation on the interaction
19 | P183T | with no effect
20 | S54F | with no effect
21 | P183H | with no effect
